We go through 1 substance from patent US20230279064A1.

In the test the target is human collagen (Sigma cat. no. C5483) (human). The experiment in a line: ELISA on immobilised human collagen (FIG. 9).
human collagen (Sigma cat. no. C5483) (human), sequence (P02452 162-1218, chain 1 of 2): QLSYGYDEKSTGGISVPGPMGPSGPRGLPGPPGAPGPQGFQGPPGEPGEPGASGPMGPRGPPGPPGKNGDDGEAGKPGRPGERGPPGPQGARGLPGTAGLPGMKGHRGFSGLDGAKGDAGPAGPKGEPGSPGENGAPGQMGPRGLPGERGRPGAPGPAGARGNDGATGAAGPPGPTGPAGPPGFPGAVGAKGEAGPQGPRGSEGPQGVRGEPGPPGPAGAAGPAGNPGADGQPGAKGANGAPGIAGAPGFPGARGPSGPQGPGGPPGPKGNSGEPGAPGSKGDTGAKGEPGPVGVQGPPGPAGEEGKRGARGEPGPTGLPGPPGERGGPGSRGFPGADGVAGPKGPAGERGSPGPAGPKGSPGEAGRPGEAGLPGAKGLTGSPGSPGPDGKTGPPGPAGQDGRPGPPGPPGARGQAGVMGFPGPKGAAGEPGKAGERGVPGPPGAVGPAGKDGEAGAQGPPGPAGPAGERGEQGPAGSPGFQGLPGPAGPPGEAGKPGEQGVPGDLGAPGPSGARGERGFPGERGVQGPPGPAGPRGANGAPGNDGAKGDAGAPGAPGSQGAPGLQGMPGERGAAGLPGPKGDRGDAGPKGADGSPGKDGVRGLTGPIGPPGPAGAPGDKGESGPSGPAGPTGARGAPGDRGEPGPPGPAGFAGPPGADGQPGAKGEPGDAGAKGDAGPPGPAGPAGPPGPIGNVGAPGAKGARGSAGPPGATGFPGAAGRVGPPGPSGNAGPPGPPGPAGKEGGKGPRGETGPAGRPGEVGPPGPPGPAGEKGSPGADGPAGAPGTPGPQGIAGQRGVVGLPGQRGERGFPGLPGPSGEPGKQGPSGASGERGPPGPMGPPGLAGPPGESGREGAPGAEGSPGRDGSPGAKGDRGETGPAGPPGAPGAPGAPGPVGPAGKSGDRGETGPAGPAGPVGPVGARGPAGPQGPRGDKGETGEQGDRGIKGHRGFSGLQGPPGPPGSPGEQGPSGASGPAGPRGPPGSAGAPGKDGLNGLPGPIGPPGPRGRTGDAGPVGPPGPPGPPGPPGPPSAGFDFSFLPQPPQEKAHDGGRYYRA
human collagen (Sigma cat. no. C5483) (human), sequence (P08123 80-1119, chain 2 of 2, further chain): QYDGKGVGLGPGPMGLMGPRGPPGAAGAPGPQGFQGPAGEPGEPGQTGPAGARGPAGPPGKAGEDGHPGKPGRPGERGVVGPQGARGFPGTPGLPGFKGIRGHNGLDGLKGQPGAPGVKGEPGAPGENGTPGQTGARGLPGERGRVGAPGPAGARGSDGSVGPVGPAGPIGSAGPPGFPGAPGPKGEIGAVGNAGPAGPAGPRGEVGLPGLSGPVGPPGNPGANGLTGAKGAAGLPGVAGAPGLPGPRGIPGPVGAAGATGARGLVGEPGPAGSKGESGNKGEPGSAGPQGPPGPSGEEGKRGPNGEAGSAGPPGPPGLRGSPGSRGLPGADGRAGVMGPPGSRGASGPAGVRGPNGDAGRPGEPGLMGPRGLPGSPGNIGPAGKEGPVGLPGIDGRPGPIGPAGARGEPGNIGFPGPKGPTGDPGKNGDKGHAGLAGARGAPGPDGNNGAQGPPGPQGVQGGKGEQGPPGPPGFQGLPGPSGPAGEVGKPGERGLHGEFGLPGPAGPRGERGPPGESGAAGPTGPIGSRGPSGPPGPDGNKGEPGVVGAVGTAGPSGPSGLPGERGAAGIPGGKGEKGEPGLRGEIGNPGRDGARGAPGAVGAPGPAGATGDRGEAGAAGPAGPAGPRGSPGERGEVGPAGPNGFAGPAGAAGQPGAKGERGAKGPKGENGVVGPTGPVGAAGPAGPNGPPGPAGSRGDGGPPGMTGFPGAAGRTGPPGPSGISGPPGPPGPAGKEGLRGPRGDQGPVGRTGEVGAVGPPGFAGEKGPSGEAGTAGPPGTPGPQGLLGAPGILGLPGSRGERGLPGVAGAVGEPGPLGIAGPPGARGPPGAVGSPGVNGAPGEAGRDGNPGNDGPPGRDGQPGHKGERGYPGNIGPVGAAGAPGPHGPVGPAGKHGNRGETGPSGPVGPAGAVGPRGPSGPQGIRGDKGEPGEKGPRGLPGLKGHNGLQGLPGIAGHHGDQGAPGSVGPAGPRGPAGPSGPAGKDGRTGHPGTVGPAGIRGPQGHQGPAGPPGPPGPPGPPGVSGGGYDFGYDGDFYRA

As to “GAIM scaffold variant with the Q128H mutation (Fc fusion)”, the fold increase in non-specific binding to collagen worked out at 1.4 fold.
